In patent US20030199671A1, “Binding molecules for Fc-region polypeptides” (priority 2001, published 2003):
Where two headings read alike, the source gives them in different places.

Columns and labels:
IgG3 = IgG3 (Homo sapiens, UniProt P01860); type: binding; parameters: all human subtypes derived from myeloma patients; purchased Calbiochem 400124; host or cells: myeloma patients; settings: for % IgG Capture - Batch Binding, Human IgG3: Table 9, immobilized peptide, 5.0 mg/ml resin load
Summary of the method: (§1)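 Steps: dilute IgG in PBST or TBST; incubate with immobilized peptide 1-1.5 h, RT; collect unbound by centrifugation; measure A280; wash three times; elute with 0.1 M sodium bicarbonate pH 8.5 and/or 0.1 M sodium citrate pH 4.0 for 30-60 min and quantitate.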

IgG4 = IgG4 (Homo sapiens, UniProt P01861); type: binding; parameters: all human subtypes derived from myeloma patients; purchased Calbiochem 400126; host or cells: myeloma patients; settings: for % IgG Capture - Batch Binding, Human IgG4: Table 9, immobilized peptide, 5.0 mg/ml resin load
Summary of the method: (§2)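 Read-out is A280 of unbound IgG (1.4 mg/ml extinction coefficient), with percent bound derived against non-filtered or negative controls. Targets were incubated with immobilized peptides in PBST or TBST for 1-1.5 h at room temperature. Hydrolyzed Sepharose and immobilized Protein A serve as negative and positive controls.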

human IgG1 = biological target: T1, human IgG1 (Homo sapiens, UniProt P01857); type: binding; settings: for % IgG Capture - Batch Binding, Human IgG1: Table 9, immobilized peptide, 5.0 mg/ml resin load
T1 construct: all human subtypes derived from myeloma patients; purchased Calbiochem 400120; host or cells: myeloma patients
Summary of the method: as §1

mouse IgG = type: binding
Summary of the method: as §2

goat IgG = type: binding
Summary of the method: as §2

human IgG [1] = type: binding
Summary of the method: as §2

bovine IgG = type: binding
Summary of the method: as §2

human IgG2 = biological target: T2, human IgG2 (Homo sapiens, UniProt P01859); type: binding; settings: for % IgG Capture - Batch Binding, Human IgG2: Table 9, immobilized peptide, 5.0 mg/ml resin load
T2 construct: all human subtypes derived from myeloma patients; purchased Calbiochem 400122; host or cells: myeloma patients
Summary of the method: as §2

human IgG [2] = assay: Dynamic (mini-column) binding capacity
Procedure: These media were used to determine the effect of ligand density on human IgG binding capacity in both static (filterplate) and dynamic (mini-column) modes with commercial immobilized recombinant Protein A (Repligen, IPA400) at a single density as control.
The IgG solution was loaded onto the column at a flow rate of 0.2 ml/minute (170 cm/hr). […] At the end of the loading period, the column was washed with PBS until the absorbance at 280 nm of the column eluant returned to baseline. […] Neutralizing the pH of the eluted fractions was unnecessary since the total IgG eluted was determined by total protein absorbance at 280 nm.
To establish total media capacities, IgG was loaded onto the columns until the absorbances of the column load and flow through streams were identical (loading to full capacity). After washing the column to baseline, bound IgG was eluted and the total amount captured from this elution fraction determined. The total capacity of the media (mg IgG/ml media) as total IgG captured divided by the column bed volume was calculated.
Additionally, column capacities at 10% breakthrough were calculated from the online A280 measurements of column flowthrough streams. The A280 curves obtained for the column of interest and for an equivalent “blank” column containing hydrolyzed Sepharose FF 4 media were aligned. The difference in areas between these curves (for a retained and non-retained target) from the time of injection to the time at which the A280 value for the column of interest had risen to 10% of the maximum A280 absorbance (100%) obtained for the load solution at 100% IgG capture saturation (10% breakthrough) was graphically integrated. A standard curve was used to relate the integrated area to mg IgG bound and capacity calculated as total IgG bound divided by column bed volume.

[3] = Table 10, elution 0.1 M sodium bicarbonate buffer, pH 8.5
[4] = Table 10, elution 0.1 M sodium citrate buffer, pH 4.0
[5] = Table 13, average ligand density 1.8 μM/ml
[6] = Table 14, average ligand density 1.8 μM/ml

Sequence of IgG3 (P01860 1-377 isoform P01860-1): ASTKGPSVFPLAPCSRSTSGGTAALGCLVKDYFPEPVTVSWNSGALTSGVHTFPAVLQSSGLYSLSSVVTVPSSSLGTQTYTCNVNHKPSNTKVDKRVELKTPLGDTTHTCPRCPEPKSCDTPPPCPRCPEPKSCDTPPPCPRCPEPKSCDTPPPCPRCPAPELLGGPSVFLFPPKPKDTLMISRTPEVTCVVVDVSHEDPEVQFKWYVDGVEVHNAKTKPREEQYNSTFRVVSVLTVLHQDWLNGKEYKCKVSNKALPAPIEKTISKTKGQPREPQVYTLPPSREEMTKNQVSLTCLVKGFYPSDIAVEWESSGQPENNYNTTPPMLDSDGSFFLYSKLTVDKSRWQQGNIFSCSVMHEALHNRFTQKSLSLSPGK
T2 sequence (P01859 1-326 isoform P01859-1): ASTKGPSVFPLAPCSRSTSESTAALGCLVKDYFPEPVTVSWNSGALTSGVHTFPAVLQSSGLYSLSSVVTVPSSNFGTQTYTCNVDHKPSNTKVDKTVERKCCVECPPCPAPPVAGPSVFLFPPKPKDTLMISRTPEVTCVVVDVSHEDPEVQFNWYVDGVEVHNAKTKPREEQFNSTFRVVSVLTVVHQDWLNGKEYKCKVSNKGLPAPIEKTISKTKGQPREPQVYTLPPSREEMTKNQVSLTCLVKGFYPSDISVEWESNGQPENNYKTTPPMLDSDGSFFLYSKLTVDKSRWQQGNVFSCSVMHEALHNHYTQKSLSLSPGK
T1 sequence (P01857 1-330 isoform P01857-1): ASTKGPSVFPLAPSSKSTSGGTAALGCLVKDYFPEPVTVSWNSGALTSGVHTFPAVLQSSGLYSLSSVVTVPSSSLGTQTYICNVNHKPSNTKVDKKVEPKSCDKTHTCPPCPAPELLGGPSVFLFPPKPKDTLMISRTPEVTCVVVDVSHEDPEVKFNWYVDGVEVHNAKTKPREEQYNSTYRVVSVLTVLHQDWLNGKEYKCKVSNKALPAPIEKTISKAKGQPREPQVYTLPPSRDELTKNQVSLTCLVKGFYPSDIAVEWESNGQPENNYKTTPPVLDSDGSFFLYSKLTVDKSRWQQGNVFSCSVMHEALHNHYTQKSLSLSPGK
Sequence of IgG4 (P01861 1-327 isoform P01861-1): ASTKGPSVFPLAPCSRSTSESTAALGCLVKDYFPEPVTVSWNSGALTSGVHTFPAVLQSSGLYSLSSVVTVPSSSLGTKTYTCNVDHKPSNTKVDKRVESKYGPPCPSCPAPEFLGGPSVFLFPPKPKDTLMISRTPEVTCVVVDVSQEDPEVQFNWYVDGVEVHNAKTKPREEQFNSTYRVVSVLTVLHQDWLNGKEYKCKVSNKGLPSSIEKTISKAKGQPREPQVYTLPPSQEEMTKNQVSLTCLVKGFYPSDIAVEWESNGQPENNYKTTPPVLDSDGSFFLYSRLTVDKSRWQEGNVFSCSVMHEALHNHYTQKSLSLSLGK

## CC(=O)N[C@@H](C)C(=O)NCC(=O)N[C@@H](C)C(=O)N[C@@H](C)C(=O)N[C@H](C(=O)N[C@H]1CSSC[C@@H](C(=O)N[C@H](C(=O)N[C@@H](CC(=O)O)C(=O)N[C@@H](CO)C(=O)N2CCC[C@H]2C(=O)NCC(=O)N2CCC[C@H]2C(=O)N[C@@H](CCC(=O)O)C(=O)NCC(=O)NCC(=O)NCC(=O)N[C@@H](CCCCN)C(N)=O)[C@@H](C)O)NC(=O)[C@H](Cc2ccccc2)NC(=O)[C@H](Cc2c[nH]c3ccccc23)NC(=O)[C@H](CCC(N)=O)NC(=O)[C@H](Cc2ccc(O)cc2)NC(=O)[C@H](Cc2ccc(O)cc2)NC(=O)[C@H](Cc2c[nH]c3ccccc23)NC(=O)[C@H](Cc2ccc(O)cc2)NC(=O)[C@H](CO)NC(=O)[C@H]([C@@H](C)O)NC(=O)[C@H](CO)NC1=O)[C@@H](C)O [DX398]
IgG3
  % IgG Capture - Batch Binding, Human IgG3: 79%
IgG4
  % IgG Capture - Batch Binding, Human IgG4: 2%
Human IgG1
  % IgG Capture - Batch Binding, Human IgG1: 6%
Mouse IgG; Table 11, unfractionated IgG
  % IgG Capture - Batch Binding, Mouse IgG: 4%
Goat IgG; Table 11, unfractionated IgG
  % IgG Capture - Batch Binding, Goat IgG: 0%
Human IgG [1]; Table 11, unfractionated IgG
  % IgG Capture - Batch Binding, Human IgG: 9%
Bovine IgG; Table 11, unfractionated IgG
  % IgG Capture - Batch Binding, Bovine IgG: 2%
Human IgG2
  % IgG Capture - Batch Binding, Human IgG2: 0%

## Prot. A: immobilized recombinant Protein A (RepliGen Corp., product no. IPA-400), positive control [reference compound]
IgG3
  % IgG Capture - Batch Binding, Human IgG3: 1%
IgG3; Table 10, batch binding
  Human IgG3 bdg % (% of Total Load): 5%
IgG3; [3]
  Human IgG3 elu pH 8.5 (% of Total Load): 0%
IgG3; [4]
  Human IgG3 elu pH 4.0 (% of Total Load): 0%
IgG3; Table 13
  hIgG3 elution pH 2.5 (% of Total Load): 0%
  hIgG3 elution pH 3.0 (% of Total Load): 0%
  hIgG3 elution pH 3.5 (% of Total Load): 0%
  hIgG3 elution pH 4.5 (% of Total Load): 0%
  hIgG3 elution pH 5.5 (% of Total Load): 0%
  hIgG3 elution pH 9.0 (% of Total Load): 0%
  hIgG3 elution pH 9.5 (% of Total Load): 0%
IgG3; [5]
  hIgG3 Bound (% of Total Load): 0%
IgG4
  % IgG Capture - Batch Binding, Human IgG4: 96%
IgG4; Table 10, batch binding
  Human IgG4 bdg % (% of Total Load): 92%
IgG4; [3]
  Human IgG4 elu pH 8.5 (% of Total Load): 2%
IgG4; [4]
  Human IgG4 elu pH 4.0 (% of Total Load): 95%
IgG4; Table 13
  hIgG4 elution pH 2.5 (% of Total Load): 70%
  hIgG4 elution pH 3.0 (% of Total Load): 77%
  hIgG4 elution pH 3.5 (% of Total Load): 87%
  hIgG4 elution pH 4.5 (% of Total Load): 27%
  hIgG4 elution pH 5.5 (% of Total Load): 6%
  hIgG4 elution pH 9.0 (% of Total Load): 7%
  hIgG4 elution pH 9.5 (% of Total Load): 8%
IgG4; [5]
  hIgG4 Bound (% of Total Load): 89%
Human IgG [2]
  Capacity at 10% breakthrough as % of total dynamic capacity: about 75%
Human IgG [2]; Ligand Density not determined
  Capacity (mg IgG/mL resin) 10% Breakthrough: 12.9 mg IgG/mL resin
  Capacity (mg IgG/mL resin) Total Dynamic: 16.3 mg IgG/mL resin
Human IgG1
  % IgG Capture - Batch Binding, Human IgG1: 95%
Human IgG1; Table 10, batch binding
  Human IgG1 bdg % (% of Total Load): 93%
Human IgG1; [3]
  Human IgG1 elu pH 8.5 (% of Total Load): 2%
Human IgG1; [4]
  Human IgG1 elu pH 4.0 (% of Total Load): 79%
Human IgG1; Table 13
  hIgG1 elution pH 2.5 (% of Total Load): 80%
  hIgG1 elution pH 3.0 (% of Total Load): 80%
  hIgG1 elution pH 3.5 (% of Total Load): 86%
  hIgG1 elution pH 4.5 (% of Total Load): 29%
  hIgG1 elution pH 5.5 (% of Total Load): 3%
  hIgG1 elution pH 9.0 (% of Total Load): 3%
  hIgG1 elution pH 9.5 (% of Total Load): 3%
Human IgG1; [5]
  hIgG1 Bound (% of Total Load): 96%
Mouse IgG; Table 11, unfractionated IgG
  % IgG Capture - Batch Binding, Mouse IgG: 77%
Mouse IgG; [6]
  % IgG Capture - Batch Binding, Mouse IgG: 69%
Goat IgG; Table 11, unfractionated IgG
  % IgG Capture - Batch Binding, Goat IgG: 23%
Goat IgG; [6]
  % IgG Capture - Batch Binding, Goat IgG: 20%
Human IgG [1]; Table 11, unfractionated IgG
  % IgG Capture - Batch Binding, Human IgG: 86%
Human IgG [1]; [6]
  % IgG Capture - Batch Binding, Human IgG: 81%
Bovine IgG; Table 11, unfractionated IgG
  % IgG Capture - Batch Binding, Bovine IgG: 72%
Bovine IgG; [6]
  % IgG Capture - Batch Binding, Bovine IgG: 60%
Human IgG2
  % IgG Capture - Batch Binding, Human IgG2: 92%
Human IgG2; Table 10, batch binding
  Human IgG2 bdg % (% of Total Load): 93%
Human IgG2; [3]
  Human IgG2 elu pH 8.5 (% of Total Load): 8%
Human IgG2; [4]
  Human IgG2 elu pH 4.0 (% of Total Load): 75%
Human IgG2; Table 13
  hIgG2 elution pH 2.5 (% of Total Load): 75%
  hIgG2 elution pH 3.0 (% of Total Load): 75%
  hIgG2 elution pH 3.5 (% of Total Load): 76%
  hIgG2 elution pH 4.5 (% of Total Load): 65%
  hIgG2 elution pH 5.5 (% of Total Load): 22%
  hIgG2 elution pH 9.0 (% of Total Load): 13%
  hIgG2 elution pH 9.5 (% of Total Load): 18%
Human IgG2; [5]
  hIgG2 Bound (% of Total Load): 85%
